Data reported in patent US20230038638A1, “COMPLEMENT FACTOR I-RELATED COMPOSITIONS AND METHODS” (published 2023).
Residue numbers refer to the chain shown, from its start.

What was measured:
[1] = target: T1, human C4b (human) (UniProt P0C0L5)
T1 sequence: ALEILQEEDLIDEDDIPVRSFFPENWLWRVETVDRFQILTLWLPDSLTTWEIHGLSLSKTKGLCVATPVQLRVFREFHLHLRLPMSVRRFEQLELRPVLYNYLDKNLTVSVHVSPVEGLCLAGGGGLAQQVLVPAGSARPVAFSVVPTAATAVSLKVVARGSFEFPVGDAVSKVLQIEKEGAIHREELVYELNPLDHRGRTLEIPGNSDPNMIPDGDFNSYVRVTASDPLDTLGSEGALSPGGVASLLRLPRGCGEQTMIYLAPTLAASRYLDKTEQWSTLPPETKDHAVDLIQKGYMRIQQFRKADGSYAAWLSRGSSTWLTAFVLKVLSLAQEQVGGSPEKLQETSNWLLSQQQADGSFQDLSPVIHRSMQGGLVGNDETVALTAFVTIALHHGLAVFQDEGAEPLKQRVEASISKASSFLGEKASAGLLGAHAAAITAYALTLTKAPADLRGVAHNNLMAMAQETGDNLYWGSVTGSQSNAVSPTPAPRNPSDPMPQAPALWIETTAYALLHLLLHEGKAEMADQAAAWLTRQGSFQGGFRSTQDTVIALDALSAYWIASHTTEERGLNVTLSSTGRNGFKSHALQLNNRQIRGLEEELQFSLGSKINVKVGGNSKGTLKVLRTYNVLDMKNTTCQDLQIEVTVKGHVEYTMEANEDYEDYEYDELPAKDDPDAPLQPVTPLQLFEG

[2] = target: soluble human C3b (human) (UniProt P01024)
[3] = target: T2, human C4b (human) (UniProt P0C0L4)
T2 sequence: T1 sequence with T151A, G317D, L364P, S365C, I368L, H369D, S420N, A451V, R454L, A530S

Substance	C4b Screen Ref Fold (fold of CFI-HSA wild type) [1]	iC3b Screen Ref Fold (fold of CFI-HSA wild type) [2]	C4c EC50 [3] [nM]	C4c EC50 (nM) [3] [nM]	also measured
CFI-HSA variant Y408L; E457G; N422K (enzyme)	3.1	1.87	43.6		
CFI-HSA variant S552G; Y553H; V565I (enzyme)	2.57	0.37	207		
CFI-HSA variant Y408L; N531G; P535A (enzyme)				118	C4b Screen Ref Fold (fold vs CFI-HSA wild type) [1]: 5.22; iC3b Screen Ref Fold (fold vs CFI-HSA wild type) [2]: 1.02
CFI-HSA variant Y553H (enzyme)	4.13	0.52	85.5	166	
CFI-HSA variant Y408L; D425R; E416A (enzyme)	0.43	2.26		221	
CFI-HSA variant E487K (enzyme)	1.11	1.35	119		
CFI-HSA variant N531G; P558S (enzyme)	5.28	1.35	63.2		
CFI-HSA variant E457G; N531G; P535G; D425K (enzyme)	5.2	1.3	39.4		
CFI-HSA variant E457G; N531G; P535G; N422K (enzyme)	4.46	1.87	51.6		
CFI-HSA variant N531G; P535G; D425K (enzyme)	4.53	1.35	78.9		
WT; GGSSGG (SEQ ID NO: 6); CR1(ccp15-17); GGSSGG (SEQ ID NO: 6); fH(ccp1-4) (enzyme)				60.3	C4b Screen Ref Fold (fold vs CFI-HSA wild type) [1]: 2.96; iC3b Screen Ref Fold (fold vs CFI-HSA wild type) [2]: 0.08
CFI-HSA variant Y408L; N531G; P558S (enzyme)	5.11	1.05	77.5		
CFI-HSA variant Y408P (enzyme)				338	C4b Screen Ref Fold (fold vs CFI-HSA wild type) [1]: -0.01; iC3b Screen Ref Fold (fold vs CFI-HSA wild type) [2]: 0.02
CFI-HSA variant Y408L; E457G; P558S (enzyme)	4.59	0.97	67.3		
CFI-HSA variant S552G; Y553H; V565I; P558S (enzyme)	3.5	0.66	108		
CFI-HSA variant E457G; N531G; P535G (enzyme)	5.48	1.27	54		

Substance	C4b Screen Ref Fold (fold of CFI-HSA wild type) [1]	iC3b Screen Ref Fold (fold of CFI-HSA wild type) [2]	C4c EC50 [3] [nM]	C4c EC50 (nM) [3] [nM]	also measured
CFI-HSA variant N531G; D425R; E530Y (enzyme)				162	
CFI-HSA variant K534N (enzyme)			300		
CFI-HSA variant Y408L; N531G; E530Y (enzyme)				54	
CFI-HSA variant Y408L; N531G; E457G; F464Y (enzyme)			23.2		
CFI-HSA variant K534M (enzyme)			154		
CFI-HSA variant Y408L; E457G; F464Y (enzyme)			110		
CFI-HSA variant Y408L; N531G; P535G; WT; GGSSGG (SEQ ID NO: 6); CR1(ccp15-17) (enzyme)			62.4		
CFI-HSA variant Y408L; E457G; R462K; F464Y; N531G; GGSSGG (SEQ ID NO: 6); CR1 (ccp15-17) (from UniProt P17927) (enzyme)				76.4	
CFI-HSA variant F464I (enzyme)			> 1000		
CFI-HSA variant E457G; N531G; E461Q; R462K; F464Y; E530Y; GGSSGG (SEQ ID NO: 6); CR1(ccp15-17) (from UniProt P17927) (enzyme)				86.7	
CFI-HSA variant N531G; F464Y (enzyme)			63.5		
CFI-HSA variant Y408L; N531G (enzyme)			71.9		
CFI-HSA variant T407G; N531G (enzyme)			620		
CFI-HSA variant E461Q; R462K; F464Y (enzyme)			159		
CFI-HSA variant N531G; E457G; R462K; F464Y (enzyme)			33		
CFI-HSA variant Y408L; E457G; E461Q; R462K; N531G; GGSSGG (SEQ ID NO: 6); CR1 (ccp15-17) (from UniProt P17927) (enzyme)				91	
